From patent US7794719 (dated 2010)

Legend:
Aβ1-42 fibers = Aβ1-42 fibers (human); experiment: SPR
Aβ1-40 fibers = Aβ1-40 fibers (human); experiment: SPR

Kd (Aβ1-42 fibers) [nM]	Kd (Aβ1-40 fibers) [nM]	Binder
1.04	1.25	MS-R 3.6H5 x 3.6L1 Fab (antibody, V domains shown) VH: QLVESGGGLVQPGGSLRLSCAASGFTFSSYAMSWVRQAPGKGLEWVSAISESGKTKYYADSVKGRFTISRDNSKNTLYLQMNSLRAEDTAVYYCARLTHYARYYRYFDVWGQGTLVTVSS VL: DIVLTQSPATLSLSPGERATLSCRASQFIQRFYLAWYQQKPGQAPRLLIYGASSRATGVPARFSGSGSGTDFTLTISSLEPEDFAVYYCQQTYNYPPTFGQGTKVEIKR
0.84	1.26	MS-R 3.6H5 x 3.6L2 Fab (antibody, V domains shown) VH: QLVESGGGLVQPGGSLRLSCAASGFTFSSYAMSWVRQAPGKGLEWVSAISESGKTKYYADSVKGRFTISRDNSKNTLYLQMNSLRAEDTAVYYCARLTHYARYYRYFDVWGQGTLVTVSS VL: DIVLTQSPATLSLSPGERATLSCRASQFLSRYYLAWYQQKPGQAPRLLIYGASSRATGVPARFSGSGSGTDFTLTISSLEPEDFAVYYCQQTYNYPPTFGQGTKVEIKR
1	0.1	MS-R 7.11H2 x 7.9L1(L1) Fab (antibody, V domains shown) VH: QLVESGGGLVQPGGSLRLSCAASGFTFSSYAMSWVRQAPGKGLEWVSAINANGYKKYYADSVKGRFTISRDNSKNTLYLQMNSLRAEDTAVYYCARGKGNTHKPYGYVRYFDVWGQGTLVTVSS VL: DIVLTQSPATLSLSPGERATLSCRASQRLSPRYLAWYQQKPGQAPRLLIYGASSRATGVPARFSGSGSGTDFTLTISSLEPEDFATYYCLQIYNMPITFGQGTKVEIKR
0.93	1.05	MS-R 3.4H3 x 3.4L9 Fab (antibody, V domains shown) VH: QLVESGGGLVQPGGSLRLSCAASGFTFSSYAMSWVRQAPGKGLEWVSVISQTGRKIYYADSVKGRFTISRDNSKNTLYLQMNSLRAEDTAVYYCARLTHYARYYRYFDVWGQGTLVTVSS VL: DIVLTQSPATLSLSPGERATLSCRASRRIHVYYLAWYQQKPGQAPRLLIYGASSRATGVPARFSGSGSGTDFTLTISSLEPEDFATYYCQQTYDYPPTFGQGTKVEIKR
0.5	0.25	MS-R 3.4H1 x 3.4L9 Fab (antibody, V domains shown) VH: QLVESGGGLVQPGGSLRLSCAASGFTFSSYAMSWVRQAPGKGLEWVSAISETSIRKYYADSVKGRFTISRDNSKNTLYLQMNSLRAEDTAVYYCARLTHYARYYRYFDVWGQGTLVTVSS VL: DIVLTQSPATLSLSPGERATLSCRASRRIHVYYLAWYQQKPGQAPRLLIYGASSRATGVPARFSGSGSGTDFTLTISSLEPEDFATYYCQQTYDYPPTFGQGTKVEIKR
2.97	2.16	MS-R 3.3H1 x 3.4L9 Fab (antibody, V domains shown) VH: QLVESGGGLVQPGGSLRLSCAASGFTFSSYAMSWVRQAPGKGLEWVSVISEKSRFIYYADSVKGRFTISRDNSKNTLYLQMNSLRAEDTAVYYCARLTHYARYYRYFDVWGQGTLVTVSS VL: DIVLTQSPATLSLSPGERATLSCRASRRIHVYYLAWYQQKPGQAPRLLIYGASSRATGVPARFSGSGSGTDFTLTISSLEPEDFATYYCQQTYDYPPTFGQGTKVEIKR
1.8	1.4	MS-R 7.4H2 x 7.12L2 Fab (antibody, V domains shown) VH: QLVESGGGLVQPGGSLRLSCAASGFTFSSYAMSWVRQAPGKGLEWVSAINYNGARIYYADSVKGRFTISRDNSKNTLYLQMNSLRAEDTAVYYCARGKGNTHKPYGYVRYFDVWGQGTLVTVSS VL: DIVLTQSPATLSLSPGERATLSCRASQRFFYKYLAWYQQKPGQAPRLLISGSSNRATGVPARFSGSGSGTDFTLTISSLEPEDFAVYYCLQLYNIPNTFGQGTKVEIKR
1.1	1.2	MS-R 7.9H2 x 7.12L1 Fab (antibody, V domains shown) VH: QLVESGGGLVQPGGSLRLSCAASGFTFSSYAMSWVRQAPGKGLEWVSAINADGNRKYYADSVKGRFTISRDNSKNTLYLQMNSLRAEDTAVYYCARGKGNTHKPYGYVRYFDVWGQGTLVTVSS VL: DIVLTQSPATLSLSPGERATLSCRASQYVFRRYLAWYQQKPGQAPRLLISGSSNRATGVPARFSGSGSGTDFTLTISSLEPEDFAVYYCLQLYNIPNTFGQGTKVEIKR
